According to patent US20160052997A1:

Target: HA of A/CA/04/09 (H1N1) virus (Influenza A virus A/CA/04/09 (H1N1))
Assay: cell-based or functional assay

With CT-P27 the EC50, microneutralization test was 0.62 µg/mL.
